Source: patent US20230331840A1

What was measured:
[1] = target: CD22-his (human) (UniProt P20273); assay: ELISA
[2] = target: h CD22-His (human) (UniProt P20273); assay: BLI (Fortebio)

M971
EC50 [1]: 0.195 nM | Kd [2]: 0.86 nM
